B1: mouse antibody 72C1 (hybridoma clone 72C1) (antibody, V domains shown)
VH: EVQLQQSGPSLVKPSQTLSLTCSVTGASITSGYWNWIRNFPGNKLEYMGYISYSGYTYYNPSLKSRISITRDTSKNQYYLQLISVTTEDTATYYCATGGYDYVEDALYYWGQGTSVTVSS
VL: EILLTQSPAIMSATLGEKVTMSCRASSNVRYMYWYQLKSGASPKLWIYLTSNLASGVPARFSGSGSGTSYSLTISSVEAEDAATYFCQQFTTSPYTFGGGTKLEIK
notes: Mouse hybridoma antibody tested as culture supernatant
B2: mouse antibody 84C4 (hybridoma clone 84C4) (antibody, V domains shown)
VH: EVQLQQLGAELVRPGASVMLSCKVSGYFFTSYWMNWVNQRPGQGLEWIGMIHPYDSETRLNQKFKGKATLTVDKSASTAYLQLSSPTSEEYAVYYCASSTTAFAYWGQGTLVTVSA
VL: DILMTQSPSSLSASLGERVSLTCRASQDIGNALNWLQQAPDGTIKRLIYATSSLDPGVPKRFSGSRSGSDYSLTISSLASEDFVYYYCLQYASSPYTFGGGTKLEIK
notes: as for B1
B3: mouse antibody 74B4D6 (hybridoma clone 74B4D6) (antibody, V domains shown)
VH: EVQLQQPGAELGKPGASVKMACKASGYTFTNYWIHWVKQRPGQGLEWIGTIDPSENYTNYNQKFKGKATLTVDTSSSTAYMQLSSLTSEDKAVYFCTGSSFSYWGQGTLVTVSA
VL: QNVLTQSPAIMSVSPGEKVTMTCSASSSVSFIHWFQQKPGTSPKLWIYTTSNLASGVPARFSGSGSGTSYSLTISRMEAEDAATYYCQQRSSYPLTFGAGTKLELK
notes: as for B1
B4: mouse antibody 58A8D1 (hybridoma clone 58A8D1) (antibody, V domains shown)
VH: EVQLQQLGSVLVRPGISVKLSCKASGYSFTSSWMHWTKQRPGQGLEWIGEIHPNSGNTNYNEKFKGKATLTVDTSSRTAYVDLSSLTSEDSAVYYCARSPYGYGGSMDYWGQGTSVTVSS
VL: DIQMTQTTSSLSASLGDRVTISCRASQDIHNYLNWYQQKPDGTVKLLIYYTSRLYSGVPSRFSGSGSGTDYSLTISNLEQEDFATYFCQQGNTLPVMFGSGTKLELK
notes: as for B1
B5: mouse antibody 6G10 (hybridoma clone 6G10) (antibody, V domains shown)
VH: EVMLVESGGGLVKPGGSLKLSCAASGITFSRFAMSWIRQTPEKRLEWVATISSGDMYTYYPDSVKGRFTISRDNANNTLYLQMRSLRSEDTAMYYCAIMITTGEHAYWGQGTLVTVSA
VL: EIKMTQSPSSLSASLGDTITITCRASQDISVWLTWYQQKPGNIPKLLIYKASNLHTGVPPRFSGSGSGTDFTFTISSLQPEDITTYYCLQSQSYPWTFGGGTKLEIK
notes: as for B1

molecular target: T1, hIL36R-ECD hFc recombinant protein (human); experiment: ELISA of hybridoma culture supernatant on hIL-36R
T1 construct: also called hIL-36R extracellular region with human antibody heavy chain Fc
T1 sequence (chain, as listed by the source limits assumed): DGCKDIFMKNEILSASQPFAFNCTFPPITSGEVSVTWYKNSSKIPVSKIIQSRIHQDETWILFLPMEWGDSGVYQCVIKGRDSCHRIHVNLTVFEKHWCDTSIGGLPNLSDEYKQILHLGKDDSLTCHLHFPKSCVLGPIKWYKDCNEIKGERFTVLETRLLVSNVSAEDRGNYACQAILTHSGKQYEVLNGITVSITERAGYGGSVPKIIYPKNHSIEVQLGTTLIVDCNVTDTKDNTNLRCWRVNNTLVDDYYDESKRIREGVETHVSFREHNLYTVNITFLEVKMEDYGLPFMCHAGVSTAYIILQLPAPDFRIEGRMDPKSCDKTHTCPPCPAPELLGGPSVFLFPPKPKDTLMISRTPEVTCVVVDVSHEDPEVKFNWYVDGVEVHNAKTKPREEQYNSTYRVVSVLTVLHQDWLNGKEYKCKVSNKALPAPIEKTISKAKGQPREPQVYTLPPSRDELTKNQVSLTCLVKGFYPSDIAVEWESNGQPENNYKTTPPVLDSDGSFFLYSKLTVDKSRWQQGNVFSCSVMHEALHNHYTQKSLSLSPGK

Q: Does B1 bind?
A: Result: binds

Q: Does B2 bind?
A: Result: binds

Q: Does B3 bind?
A: Result: binds

Q: Does B4 bind?
A: Result: binds

Q: Does B5 bind?
A: Result: binds

From US20240270857A1 (CHIA TAI TIANQING PHARMACEUTICAL GROUP, published 2024)
